Assay results as given in PMC6448830 (PLoS Pathogens, 2019).

Experiments:
[1] = molecular target: T1, A. trivirgatus 2B4-Fc fusion protein (Aotus trivirgatus); experiment: SPR; settings: both partners purified
T1 construct: also called host 2B4-Fc; aoCD244-Fc

[2] = molecular target: T2, human 2B4-Fc fusion protein (human, UniProt Q9BZW8 22-229); experiment: SPR; settings: both partners purified
T2 construct: also called h2B4-Fc; h2B4
T2 sequence: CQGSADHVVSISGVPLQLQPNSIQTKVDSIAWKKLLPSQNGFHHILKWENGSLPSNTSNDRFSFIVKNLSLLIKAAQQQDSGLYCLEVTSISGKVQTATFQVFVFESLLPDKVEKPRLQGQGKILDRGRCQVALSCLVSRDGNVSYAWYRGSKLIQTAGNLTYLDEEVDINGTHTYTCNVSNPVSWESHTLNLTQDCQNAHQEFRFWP

B1: A. trivirgatus CD48-Fc fusion protein (Fc fusion)
chain: TSIQGNSVDVINAISGGNVTLNISESLPENVREITWFCTYHQKIADWDVKRLKYFDNKFKGRVRLDYQSGALYISKIQKEDANIYIMRVLKETMYEQEWKIRLQVFDPVPKPDIKIEKTAKVEDDCYLKLSCVIPDESVNYTWYGDKEPFPKEFQSGVLETTLKSQDYSRCYTCQVSNPVSSKNDTVCFS
modifications: biotin (biotinylated host CD48-Fc in the blocking ELISA)
Kd [1]: 3.3 nM

B2: A43-Fc fusion protein (Fc fusion)
chain: VNIVNALVGGNITLNISESLPENVREITWFCTYDQKIADWDVKRLKYFDNKFKGRVRLDSQSGALYLSRVQKEDANIYIMRVLKDTMFEQDWKIRLQVFDEVDTPNITLVNTTLISDTCYVNFSCSHHDSLCYTSNENCTWYHFSQNITKTPPWNHSASSNSCYTCEFKNPVHRKNITMCISGCGQT
modifications: Wild-type viral ectodomain. The human IgG1 Fc carrier (dimerising) and CD33 leader are left out. The C-terminal limit follows from the printed membrane-proximal region 214-225, so Ig2 ends at …
Kd [1]: 1.3 nM | fold slower dissociation than host CD48 [1]: 2.6 fold | koff [1]: 0.000188 s⁻¹ | kon [1]: 116000 M⁻¹ s⁻¹ | Kd [2]: 3.6 nM | fold higher affinity than hCD48 [2]: 6 fold | fold slower dissociation than hCD48 [2]: 55 fold | koff [2]: 0.000405 s⁻¹ | kon [2]: 169000 M⁻¹ s⁻¹
